Test [1] addresses monkey FcRn (monkey (cynomolgus monkeys in the same paragraph)) (UniProt Q8SPV9).
Test [2] concerns the target human neonatal Fc receptor (FcRn) (human) (UniProt P55899).
Test [3] addresses monkey FcRn (monkey (cynomolgus monkeys in the same paragraph)) (UniProt Q8SPV9). The source holds these as a separate data set.
Test [4] deals with human neonatal Fc receptor (FcRn) (human) (UniProt P55899). Kind of test: SPR. Background: Surface plasmon resonance follows binding to a sensor surface in real time, without labels.

On to “Xtend-EGFR (humanized cetuximab huC225 IgG1 with the Fc substitutions M428L/N434S) (antibody)”, for which the serum half-life in cynomolgus monkeys, 7.5 mg/kg i.v. in test [1] is 4.7 days. In test [2], the serum half-life in hFcRn mice (mFcRn-/-, hFcRn+), 2 mg/kg i.v. stood at 13.9 days.

As for “Xtend-VEGF (bevacizumab IgG1 with the Fc substitutions M428L/N434S) (antibody)”, the serum half-life in cynomolgus monkeys, 4 mg/kg i.v. in test [3] stood at 31.1 days. Moreover, in test [2], the serum half-life in hFcRn mice (mFcRn-/-, hFcRn+), 2 mg/kg i.v. is 12 days. This substance also returned a fold improvement in FcRn affinity in test [4] of 11 fold.
